Test [1] concerns the target HLA-A*01:01. In words: IEDB peptide-MHC binding, purified MHC/competitive/fluorescence; ≥ and ≤ were set here for values at or beyond the usual limits of such assays. The following applies: source organism: Vaccinia virus WR.
In test [2] the target is HLA-A*02:01. The description is as above. The note with it: source organism: Vaccinia virus WR.
Test [3] deals with HLA-A*03:01. The test is described as above. The note with it: source organism: Vaccinia virus WR.
The target in test [4] is HLA-A*11:01. The description is as above. The note with it: source organism: Vaccinia virus WR.
Another test deals with HLA-A*24:02. The description is as above. The following applies: source organism: Vaccinia virus WR.
The target of test [5] is HLA-B*15:01. Described as above. The note with it: source organism: Vaccinia virus WR.
The target in test [6] is HLA-A*01:01. In words: IEDB peptide-MHC binding, purified MHC/direct/fluorescence; filed as Kd, often an IC50 or EC50 that approximates it; ≥ and ≤ were set here for values at or beyond the usual limits of such assays.
Test [7] concerns the target HLA-A*02:01. The description is as above.
For test [8], the target named is HLA-A*03:01. Described as above.
Test [9] addresses HLA-A*11:01. The description is as above. The following applies: source organism: Camelpox virus M-96.
For a further test, the target named is HLA-A*31:01. Described as above. The note with it: source organism: Camelpox virus M-96.
Test [10] concerns the target HLA-A*68:02. The description is as above. The following applies: source organism: Camelpox virus M-96.
Another test addresses HLA-A*69:01. Described as above.
For another test, the target named is HLA-A*80:01. The test is described as above. The note with it: source organism: Camelpox virus M-96.
Another test concerns the target HLA-B*07:02. Described as above.
In the next test the target is HLA-B*08:01. The test is described as above.
For another test, the target named is HLA-B*08:03. The description is as above.
In the next test the target is HLA-B*27:05. The test is described as above.
For another test, the target named is HLA-B*40:01. Described as above. The note with it: source organism: Camelpox virus M-96.
The target in another test is HLA-B*46:01. The description is as above.
For the next test, the target named is HLA-B*48:01. The description is as above.
The next test concerns the target HLA-B*57:01. The test is described as above.
Another test deals with HLA-B*58:01. Described as above.
The next test concerns the target HLA-A*26:01. The test is described as follows: IEDB peptide-MHC binding, purified MHC/competitive/fluorescence; filed as Kd, often an IC50 or EC50 that approximates it; ≥ and ≤ were set here for values at or beyond the usual limits of such assays. The note with it: source organism: Vaccinia virus WR.
For the next test, the target named is HLA-A*26:02. The test is described as above.
Test [11] deals with HLA-A*26:03. The description is as above. The note with it: source organism: Vaccinia virus WR.
Test [12] addresses HLA-B*15:01. The test is described as above. The note with it: source organism: Vaccinia virus WR.
The target of test [13] is HLA-B*15:17. The test is described as above. The note with it: source organism: Vaccinia virus WR.
Test [14] concerns the target HLA-B*35:01. Described as above. The note with it: source organism: Vaccinia virus WR.
The next test concerns the target HLA-A*29:02. The test is described as above. The note with it: source organism: Crocodilepox virus.
For a further test, the target named is HLA-A*32:07. Described as above. The note with it: source organism: Crocodilepox virus.
Another test has as its target HLA-B*15:42. The description is as above. The note with it: source organism: Crocodilepox virus.
The target of a further test is HLA-B*45:06. The description is as above. The note with it: source organism: Crocodilepox virus.
For the next test, the target named is HLA-B*83:01. The description is as above. The following applies: source organism: Crocodilepox virus.
A further test deals with HLA-A*02:11. In words: IEDB peptide-MHC binding, purified MHC/direct/fluorescence; filed as Kd, often an IC50 or EC50 that approximates it; ≥ and ≤ were set here for values at or beyond the usual limits of such assays. The note with it: source organism: Bacillus cereus 03BB108.
In the next test the target is HLA-A*02:12. The test is described as above. The note with it: source organism: Bacillus cereus 03BB108.
The target of another test is HLA-A*02:19. Described as above. The note with it: source organism: Bacillus cereus 03BB108.
Test [15] deals with HLA-A*26:03. Described as above. The note with it: source organism: Bacillus cereus 03BB108.
The next test has as its target HLA-B*08:02. The test is described as above. The note with it: source organism: Bacillus cereus 03BB108.
The target of test [16] is HLA-B*15:01. Described as above. The following applies: source organism: Bacillus anthracis.
For a further test, the target named is HLA-B*15:02. The test is described as above. The note with it: source organism: Bacillus cereus 03BB108.
Test [17] has as its target HLA-B*15:17. The test is described as above. The note with it: source organism: Bacillus anthracis.
The target of test [18] is HLA-B*35:01. The description is as above. The following applies: source organism: Bacillus cereus 03BB108.
For test [19], the target named is HLA-A*11:01. In words: IEDB peptide-MHC binding, purified MHC/competitive/fluorescence; filed as Kd, often an IC50 or EC50 that approximates it; ≥ and ≤ were set here for values at or beyond the usual limits of such assays. The note with it: source organism: Bacillus anthracis str. A0488.
Test [20] deals with HLA-A*68:02. Described as above. The following applies: source organism: Bacillus anthracis str. A0488.
For a further test, the target named is HLA-B*15:09. The test is described as above. The note with it: source organism: Bacillus anthracis str. A0488.
For the next test, the target named is HLA-B*39:01. The description is as above. The following applies: source organism: Bacillus anthracis str. A0488.
[21] abbreviates: source organism: Camelpox virus M-96.
Where [22] appears, read: source organism: Bacillus anthracis.
Setting [23] is: source organism: Bacillus cereus 03BB108.

We go through 3 sequences from the Immune Epitope Database (IEDB).

For orientation: IC50 means the concentration needed to halve the response being measured. What is called Kd is the concentration at which binding is half-saturated. High values mean lower affinity, low ones higher affinity. In the case of SLFTEQAFY, the half-maximal inhibitory concentration (IC50) was 32 µM with HLA-A*01:01 [1]; 15 µM with HLA-A*02:01 [2]; 7.04 µM in the test with HLA-A*03:01 [3]; 7.85 µM with HLA-A*11:01 [4]; 31.2 µM with HLA-A*24:02; 3.93 µM with HLA-B*15:01 [5]. Besides, the equilibrium dissociation constant (Kd) with HLA-A*01:01 [6] (setting [21]) is no less than 20 µM; with HLA-A*02:01 [7] (setting [21]) it was no less than 20 µM; with HLA-A*03:01 [8] (setting [21]), 4.41 µM; with HLA-A*11:01 [9] it was 1.11 µM; with HLA-A*31:01 it was no less than 20 µM; with HLA-A*68:02 [10], no less than 20 µM. Moreover, the Kd with HLA-A*69:01 (setting [21]) was no less than 20 µM; in the test with HLA-A*80:01, 0.0086 µM; in the test with HLA-B*07:02 (setting [21]), no less than 20 µM; in the test with HLA-B*08:01 (source organism: Variola virus) it was no less than 20 µM; in the test with HLA-B*08:03 (source organism: Variola virus) it was no less than 20 µM; in the test with HLA-B*27:05 (setting [21]), no less than 20 µM. Besides, the equilibrium dissociation constant (Kd) in the test with HLA-B*40:01 is no less than 20 µM; in the test with HLA-B*46:01 (setting [21]) it was no less than 20 µM; with HLA-B*48:01 (setting [21]), no less than 20 µM; with HLA-B*57:01 (setting [21]) it was no less than 20 µM; with HLA-B*58:01 (source organism: Variola virus) it was no less than 20 µM; in the test with HLA-A*26:01 it was no less than 5 µM. Further, the Kd was no less than 20 µM with HLA-A*26:02 (source organism: Vaccinia virus WR); no less than 20 µM in the test with HLA-A*26:03 [11]; 0.959 µM in the test with HLA-B*15:01 [12]; no less than 20 µM with HLA-B*15:17 [13]; 1.15 µM with HLA-B*35:01 [14].
For RVRSMANVY, the dissociation constant (Kd) with HLA-A*29:02 is 0.0151 µM; with HLA-A*32:07, 0.0157 µM; with HLA-B*15:42, no less than 5 µM; with HLA-B*45:06 it was no less than 5 µM; in the test with HLA-B*83:01, no less than 5 µM.
For KVQEWYLSY, the Kd was no less than 5 µM with HLA-A*01:01 [6] (setting [22]); 14.3 µM with HLA-A*02:01 [7] (setting [22]); 0.308 µM with HLA-A*02:11; 1.63 µM in the test with HLA-A*02:12; no less than 20 µM with HLA-A*02:19; 0.132 µM in the test with HLA-A*03:01 [8] (setting [22]). Moreover, the dissociation constant (Kd) with HLA-A*26:03 [15] was no less than 20 µM; with HLA-A*69:01 (setting [22]), 15 µM; in the test with HLA-B*07:02 (setting [22]), 5.54 µM; with HLA-B*08:01 (setting [23]) it was no less than 20 µM; in the test with HLA-B*08:02 it was no less than 20 µM; in the test with HLA-B*08:03 (setting [23]), 0.324 µM. The Kd in the test with HLA-B*15:01 [16] is 0.443 µM; with HLA-B*15:02 it was 1.48 µM; with HLA-B*15:17 [17], 0.121 µM; with HLA-B*27:05 (setting [22]), 0.0517 µM; with HLA-B*35:01 [18], 2.06 µM; in the test with HLA-B*46:01 (setting [22]) it was no less than 20 µM. The dissociation constant Kd in the test with HLA-B*48:01 (setting [22]) is no less than 20 µM; in the test with HLA-B*57:01 (setting [22]), no less than 20 µM; with HLA-B*58:01 (setting [22]) it was 3.62 µM; in the test with HLA-A*11:01 [19], 0.0422 µM; with HLA-A*26:02 (source organism: Bacillus anthracis str. A0488), 1.21 µM; with HLA-A*68:02 [20] it was 3.4 µM. Besides, the results for the Kd with HLA-B*15:09 and with HLA-B*39:01 were no less than 20 µM and 0.0869 µM, respectively.
